Data set [1] has as its target Hfq-NA (Escherichia coli, UniProt P0A6X3 1-102). Kind of data set: analytical ultracentrifugation.
The target of data set [2] is Hfq wt (Escherichia coli, UniProt P0A6X3 1-102). Kind of data set: analytical ultracentrifugation.

For the molecule AAAAAAAAAAAAAAAAAA (ssRNA) [FAM-rA18], the binding result in data set [1] and in data set [2] was “binds” in each case.

The values are drawn from publication PMC3072145.
